Patent US20220411521A1 (Ablynx, published 2022)

T1: human GITR (human, UniProt Q9Y5U5 26-241)
T1 construct: also called glucocorticoid-induced TNFR family-related receptor; TNFRSF18
T1 sequence: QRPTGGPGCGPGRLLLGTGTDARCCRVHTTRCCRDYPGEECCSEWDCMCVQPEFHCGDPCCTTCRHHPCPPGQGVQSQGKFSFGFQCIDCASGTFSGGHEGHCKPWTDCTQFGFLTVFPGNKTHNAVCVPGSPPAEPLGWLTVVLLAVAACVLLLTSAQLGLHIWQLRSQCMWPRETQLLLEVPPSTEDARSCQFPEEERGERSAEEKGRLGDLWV

T2: human GITR-Fc (Enzo Life Sciences, ALX-522-061-C050) (human, UniProt Q9Y5U5 26-162)
T2 construct: Bought protein; not shown: Fc part of the bought fusion protein; not described
T2 sequence: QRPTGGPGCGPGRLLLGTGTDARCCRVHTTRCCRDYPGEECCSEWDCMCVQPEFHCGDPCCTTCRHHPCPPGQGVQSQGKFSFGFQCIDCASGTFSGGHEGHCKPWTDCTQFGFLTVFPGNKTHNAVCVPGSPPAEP


Columns and labels:
human GITR = target: T1, human GITR; assay: flow cytometry on activated human T cells, anti-FLAG detection
Experimental: Binding of purified monovalent anti-GITR Nanobodies to human GITR expressed on activated T cells was evaluated in flow cytometry. For this purpose, PBMCs from healthy donors were cultured with Dynabeads® Human T-Activator CD3/CD28 (Gibco—Life Technologies #11131D) for 7 days in a 1/2 bead/cell ratio.
Dilution series of Nanobodies starting from […] were applied to the cells. Nanobodies were allowed to associate for 30 minutes at 4° C. in FACS buffer (PBS supplemented with 10% FBS and 0.05% azide). Cells were washed by centrifugation and probed with anti-FLAG antibodies (Sigma F1804) for 30 minutes at 4° C., to detect bound Nanobody. […] Cells were washed and incubated with TOPRO3 to stain for dead cells which were subsequently removed during the gating procedure. The cells were then analysed via a BD FACSArray.

[1] = target: T2, human GITR-Fc (Enzo Life Sciences, …); assay: ProteOn XPR36; human GITR-Fc amine-coupled on GLC chip, Nanobody injected at 6 concentrations
Experimental: Affinity was determined on the Proteon XPR36. Briefly, after human GITR-Fc (Enzo Life Sciences, ALX-522-061-C050) was immobilized on a GLC chip via amine coupling, a range of 6 concentrations of different monovalent Nanobodies (representing each family) were injected. The Ko values were determined by using the calculated association rate and dissociation rate constants (Table 1) (ProteOn Manager 3.1.0, Version 3.1.0.6 (2011)).

Row | Binder | EC50 (human GITR) [nM] | Kd [1] [nM] | koff [1] [s⁻¹] | kon [1] [M⁻¹ s⁻¹]
1 | A0231004B01 (VHH, Monovalent Nanobody expressed in E. coli with a triple Flag, HIS6 tag; also called A0231PMP004B01; PA0231PMP004B01.1; not shown: C-terminal triple FLAG and HIS6 tag) VHH: EVQLVESGGGLVQPGGSLRLSCAASGSIFSIDSMGWYRQAPGKQRELVAAITSSTNYADSVKGRFTISRDNAKNTVYLQMNSLKPEDTAVYYCNLEGQAGWGTALINYWGKGTLVTVSS | 0.61 | 2.6 | 0.0027 | 1.1e+06
2 | A0231033B02 (VHH, Monovalent Nanobody expressed in E. coli with a triple Flag, HIS6 tag; also called A0231PMP033B02; PA0231PMP033B02.1; not shown: C-terminal triple FLAG and HIS6 tag) VHH: EVQLVESGGGLVQPGGSLRLSCAASGTIFSISTMGWYRQAPGKQREVVAVTSGFSTNYSSAVKGRFTLSRDPAKNTVFLQMNSLQPEDTATYYCNAYLSLAWRDPDRDYWGQGTQVTVSS | 21 | 16 | 0.008 | 490000
3 | A0231005A03 (VHH, Monovalent Nanobody expressed in E. coli with a triple Flag, HIS6 tag; also called A0231PMP005A03; PA0231PMP005A03.1; not shown: C-terminal triple FLAG and HIS6 tag) VHH: EVQLVESGGGLVQPGGSLRLSCAASETIFSIDSMAWYRQAPGKQRELVAAITGGGSPNYADSVKGRFTISSDVAKRTVYLQMNSLKPEDTAVYYCNAEGQAGWGTALMDYWGKGTLVTVSS | 0.79 | 3.4 | 0.0023 | 680000
4 | A0231003D11 (VHH, Monovalent Nanobody expressed in E. coli with a triple Flag, HIS6 tag; also called A0231PMP003D11; PA0231PMP003D11.1; not shown: C-terminal triple FLAG and HIS6 tag) VHH: EVQLVESGGGLVQAGESLRLSCAASGSIFSIDAMGWYRQAPGKQRELVAEISDHTTYGDSVKGRFTISRGNAENTVALQMNSLKPEDTGVYYCNVHHQRGWGTSITVTWGQGTQVTVSS | 1.3 | 4.6 | 0.0029 | 630000

Continued, values first:

Row | EC50 (human GITR) [nM] | Kd [1] [nM] | koff [1] [s⁻¹] | kon [1] [M⁻¹ s⁻¹] | Binder
5 | 23 | 24 | 0.00097 | 41000 | A0231052A08 (VHH, Monovalent Nanobody expressed in E. coli with a triple Flag, HIS6 tag; also called A0231PMP052A08; PA0231PMP052A08.1; not shown: C-terminal triple FLAG and HIS6 tag) VHH: EVQLVESGGGLVQAGGSLRLSCVASGSISSITAMGWHRQAPGAQREGVAVISRSGATMLVDSVKGRFTIVQDNAKNTVYLQMNSLKVEDTAVYGCSAITQGRTYWGQGTLVTVSS
6 | 0.54 | 2.5 | 0.00067 | 270000 | A0231034A08 (VHH, Monovalent Nanobody expressed in E. coli with a triple Flag, HIS6 tag; also called A0231PMP034A08; PA0231PMP034A08.1; not shown: C-terminal triple FLAG and HIS6 tag) VHH: EVQLVESGGDLVQPGGSLRLSCAASGSVFSINDMGWFRQAPGKQRELVADIISRGVTNYADSVKGRFTISGDPAKNTVYLQMNSLKPEDTAVYYCNAHISTGWGRPHNNYWGQGTQVTVSS
